Measured values: US20250011363A1, “OPTIMIZED SHORTENED PEPTIDE THAT BINDS TO ACETYLCHOLINE RECEPTOR, AND USE THEREOF” (SKINMED CO., LTD., priority 2021, published 2025)

Molecular target: acetylcholine receptor (Homo sapiens, UniProt P02708)
Assay: SPR binding affinity (RU) of optimized 5mer/6mer/7mer peptides, Examples 6-7
Settings: 6mer-1 Top sequence; SPR; peptides tested at 10 μM
Procedure, shortened: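 Response units from SPR give the binding values listed. Each synthesized peptide was run at 10 μM over the receptor.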

acetylcholine receptor, sequence (P02708 21-457): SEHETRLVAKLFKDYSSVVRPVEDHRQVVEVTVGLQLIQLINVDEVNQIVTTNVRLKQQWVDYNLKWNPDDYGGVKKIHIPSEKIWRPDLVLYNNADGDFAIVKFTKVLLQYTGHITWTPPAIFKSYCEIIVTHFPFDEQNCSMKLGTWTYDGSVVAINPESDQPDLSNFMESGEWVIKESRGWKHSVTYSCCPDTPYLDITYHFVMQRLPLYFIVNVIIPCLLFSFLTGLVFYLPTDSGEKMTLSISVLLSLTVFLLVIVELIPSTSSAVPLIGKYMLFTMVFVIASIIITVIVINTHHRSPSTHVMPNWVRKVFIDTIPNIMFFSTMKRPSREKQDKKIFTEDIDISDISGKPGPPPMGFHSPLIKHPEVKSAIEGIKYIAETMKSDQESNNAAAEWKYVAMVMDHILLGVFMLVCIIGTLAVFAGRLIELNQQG

| Substance | Binding affinity |
| --- | --- |
| 6mer-1-378 (KRSLQK) | 153 Ru |
| 6mer-1-296 (RKSIRR) | 121 Ru |
| 6mer-1-231 (KRQRTK) | 136 Ru |
| 6mer-1-223 (KKRRRK) | 133 Ru |
| 6mer-1-270 (KRGLRR) | 149 Ru |

Same assay, conditions: 6mer-2 Top sequence; SPR; peptides tested at 10 μM

| Substance | Binding affinity |
| --- | --- |
| 6mer-2-47 (KLQSRR) | 148 Ru |
| 6mer-2-150 (KRILKR) | 136 Ru |
| 6mer-2-182 (KLFYKK) | 139 Ru |
| 6mer-2-199 (RGQYKR) | 137 Ru |
| 6mer-2-111 (KLIRRK) | 123 Ru |
| 6mer-2-68 (KGRRRK) | 142 Ru |
| 6mer-2-166 (RWLRKR) | 125 Ru |
| 6mer-2-161 (KWRRKK) | 154 Ru |

Same assay, conditions: SPR, Resonance Units; 5mer Bottom sequence (bottom combinations); peptides tested at 10 μM

| Substance | Binding affinity |
| --- | --- |
| 5mer-695 (KKPDR) | 26 Ru |
| 5mer-669 (RNPER) | 24 Ru |
| 5mer-663 (RATPR) | 31 Ru |
| 5mer-985 (RDPKR) | 17 Ru |
| 5mer-911 (REHGK) | 14 Ru |
| 5mer-761 (RMPWR) | 31 Ru |
| 5mer-660 (KFDVK) | 11 Ru |
| 5mer-1079 (KYTGR) | 31 Ru |
| 5mer-1004 (RDADR) | 30 Ru |
| 5mer-718 (RNKKK) | 19 Ru |
| 5mer-981 (KNDKK) | 33 Ru |
| 5mer-657 (KDNDR) | 22 Ru |
| 5mer-1076 (KFEKK) | 21 Ru |
| 5mer-1033 (REWDK) | 28 Ru |

Same assay, conditions: SPR, Resonance Units; peptides tested at 10 μM; 6mer-1 Bottom sequence

| Substance | Binding affinity |
| --- | --- |
| 6mer-1-1156 (KRYTVR) | 37 Ru |
| 6mer-1-1133 (KKPNIK) | 24 Ru |
| 6mer-1-1060 (KRYNVR) | 21 Ru |
| 6mer-1-1070 (KKTCDK) | 24 Ru |

Same assay, conditions: SPR, Resonance Units; peptides tested at 10 μM; 6mer-1 Bottom sequence (Table 11)

| Substance | Binding affinity |
| --- | --- |
| 6mer-1-663 (KKFKDR) | 26 Ru |
| 6mer-1-763 (RRDCAK) | 12 Ru |
| 6mer-1-622 (KKCPNR) | 18 Ru |
| 6mer-1-741 (RKEAGR) | 24 Ru |
| 6mer-1-706 (KRMKDR) | 29 Ru |
| 6mer-1-754 (RKKKMK) | 24 Ru |
| 6mer-1-664 (KRDHIK) | 26 Ru |

Same assay, conditions: SPR, Resonance Units; peptides tested at 10 μM; 6mer-2 Bottom sequence

| Substance | Binding affinity |
| --- | --- |
| 6mer-2-941 (RDEDKR) | 33 Ru |
| 6mer-2-820 (RPNNKK) | 24 Ru |
| 6mer-2-803 (RNKERK) | 18 Ru |
| 6mer-2-666 (KPMDRR) | 25 Ru |
| 6mer-2-907 (RTMNRR) | 25 Ru |
| 6mer-2-934 (KYKDRR) | 26 Ru |
| 6mer-2-785 (RHCHRR) | 31 Ru |
| 6mer-2-729 (RCPDKR) | 30 Ru |
| 6mer-2-913 (KFKNRR) | 25 Ru |
| 6mer-2-626 (KNSEKK) | 33 Ru |
| 6mer-2-762 (KFEERK) | 24 Ru |
| 6mer-2-740 (KIDIRR) | 12 Ru |
| 6mer-2-688 (RPMFRK) | 13 Ru |
| 6mer-2-659 (KIPNKR) | 22 Ru |
| 6mer-2-808 (RKKFKK) | 21 Ru |
| 6mer-2-622 (RYTNKR) | 13 Ru |
| 6mer-2-772 (RHPAKK) | 15 Ru |

Same assay, conditions: SPR, Resonance Units; peptides tested at 10 μM; 6mer-2 Top sequence

| Substance | Binding affinity |
| --- | --- |
| 6mer-2-505 (KRQCKK) | 148 Ru |
| 6mer-2-466 (RLLTRR) | 142 Ru |
| 6mer-2-442 (RLVQKR) | 139 Ru |
| 6mer-2-593 (RSQLKR) | 139 Ru |
| 6mer-2-585 (RSFRRK) | 136 Ru |
| 6mer-2-518 (KLVTKK) | 151 Ru |

Same assay, conditions: SPR, Resonance Units; peptides tested at 10 μM; 6mer-2 Top sequence (Table 12)

| Substance | Binding affinity |
| --- | --- |
| 6mer-2-218 (KGVSKK) | 147 Ru |
| 6mer-2-287 (RLYLKR) | 124 Ru |
| 6mer-2-230 (RWIQRR) | 135 Ru |
| 6mer-2-283 (KLISKR) | 148 Ru |
| 6mer-2-271 (RLFQKK) | 131 Ru |
| 6mer-2-277 (RLRYRK) | 128 Ru |

Same assay, conditions: SPR, peptides at 10 μM; 6mer-2 Bottom sequence

| Substance | Binding affinity |
| --- | --- |
| 6mer-2-1001 (RKKFKK) | 37 Ru |
| 6mer-2-1200 (RHHNRR) | 30 Ru |
| 6mer-2-1050 (KPPPRK) | 26 Ru |
| 6mer-2-1153 (KHKPKR) | 27 Ru |
| 6mer-2-1020 (KHDKKR) | 21 Ru |
| 6mer-2-1094 (KAWERK) | 43 Ru |
| 6mer-2-1102 (KHKGKR) | 32 Ru |
| 6mer-2-1159 (KDMGKR) | 40 Ru |
| 6mer-2-997 (KISFKK) | 30 Ru |
| 6mer-2-1078 (KDTFRR) | 40 Ru |

Same assay, conditions: SPR, peptides tested at 10 μM; 5mer Top sequence

| Substance | Binding affinity |
| --- | --- |
| 5mer-453 (KGVCR) | 68 Ru |
| 5mer-396 (KVVCR) | 53 Ru |
| 5mer-42 (RQRLR) | 83 Ru |
| 5mer-196 (RSYYR) | 69 Ru |
| 5mer-473 (RLVQR) | 75 Ru |
| 5mer-321 (RSLSR) | 68 Ru |
| 5mer-454 (RQVLR) | 77 Ru |
| 5mer-437 (RVRLR) | 50 Ru |
| 5mer-348 (KRQTK) | 80 Ru |
| 5mer-130 (RRFRK) | 80 Ru |
| 5mer-58 (KWVSK) | 75 Ru |

Same assay, conditions: SPR, peptides tested at 10 μM; 5mer Top sequence (top combinations)

| Substance | Binding affinity |
| --- | --- |
| 5mer-531 (KRQSR) | 65 Ru |
| 5mer-215 (RQYRR) | 79 Ru |

Same assay, conditions: SPR, peptides tested at 10 μM; 6mer-1 Bottom sequence (Table 11)

| Substance | Binding affinity |
| --- | --- |
| 6mer-1-913 (KRFWWK) | 27 Ru |
| 6mer-1-818 (RKIKAR) | 14 Ru |
| 6mer-1-948 (RKFTVR) | 24 Ru |
| 6mer-1-879 (RRYNNR) | 27 Ru |
| 6mer-1-980 (RKICAK) | 33 Ru |
| 6mer-1-895 (KKDSKK) | 28 Ru |
| 6mer-1-925 (KKAMHR) | 42 Ru |
| 6mer-1-859 (RKCMVK) | 27 Ru |
| 6mer-1-828 (RRPNMK) | 26 Ru |
| 6mer-1-829 (RRIHKK) | 25 Ru |
| 6mer-1-976 (RKEMIK) | 40 Ru |
| 6mer-1-807 (RRDKNR) | 13 Ru |

Same assay, conditions: SPR, peptides tested at 10 μM; 6mer-1 Top sequence

| Substance | Binding affinity |
| --- | --- |
| 6mer-1-440 (KRVYSK) | 153 Ru |
| 6mer-1-415 (RRGVCR) | 135 Ru |

Same assay, conditions: SPR, peptides tested at 10 μM; 6mer-1 Top sequence (top combinations)

| Substance | Binding affinity |
| --- | --- |
| 6mer-1-32 (RKGQCR) | 121 Ru |
| 6mer-1-122 (KKLIRK) | 139 Ru |
| 6mer-1-51 (RRVLYK) | 127 Ru |
| 6mer-1-44 (KRQYCK) | 148 Ru |
| 6mer-1-93 (KRWIRR) | 136 Ru |
| 6mer-1-2 (RKQILR) | 142 Ru |
| 6mer-1-37 (KKWVLR) | 121 Ru |
| 6mer-1-140 (KRQVQR) | 148 Ru |

Same assay, conditions: SPR; XRRGVRR-7mer and RRGVRRX-7mer

| Substance | Binding affinity, values relative to the RRGVRR sequence |
| --- | --- |
| 3649 (WRRGVRR) [compound 3649] | 134 |

Same assay, conditions: SPR; XRRQRR-6mer and RRQRRX-6mer

| Substance | Binding affinity, relative value to the RRQRR sequence |
| --- | --- |
| 3617 (RRRQRR) [compound 3617] | 189 |

Same assay, conditions: SPR; peptides tested at 10 μM; 5mer Bottom sequence

| Substance | Binding affinity |
| --- | --- |
| 5mer-815 (RKDHR) | 27 Ru |
| 5mer-1118 (RMDAR) | 28 Ru |
| 5mer-885 (RHCNR) | 19 Ru |
| 5mer-874 (RIHMR) | 27 Ru |
| 5mer-1172 (KIWWR) | 25 Ru |
